According to US20230189818A1, “RNA-BASED CONTROL OF BOTRYTIS” (priority 2021, published 2023):

Test system: B. cinerea
Experiment: Open-air field trial on strawberry (Example 4.4, AUDPC of % disease severity)
Type: in vivo, Botrytis cinerea
Conditions: FIG. 10
Experimental: RNAi compositions, each containing a dsRNA comprising a trigger sequence (GS349) described herein were evaluated for ability to control botrytis on strawberry in open-air field trials. All test samples were formulated as described in Example 4.3 and were tank mixed with standard adjuvant, Activator 90 0.25% v/v. Compositions were tested at concentrations of 10, 20, 30, and 40 g ai/ha. A biological standard program of Regalia 470 g ai/ha and Stylet Oil 6800 g ai/ha was used as a positive control. A chemical standard program of Captan 2240 g ai/ha and Switch 525 g ai/ha was used for a second positive control. An untreated check group was used as a negative control.
Compositions were applied to strawberry plants using a small plot sprayer delivering 50 gallons of water per acre. Five applications were made at weekly intervals. Disease state was evaluated beginning 6 days after the first application and ending 12 days after the fifth and final application. Percent Disease Severity was assessed and AUDPC was calculated in the same manner as noted in Example 4.1.

B1: GS349: dsRNA trigger targeting B. cinerea CDC42 (XM_001545642.2); trigger SEQ ID NO 14, RNA 26, reverse complement 38 (nucleic acid, listed as Botrytis cinerea)
sense: GUUGUCUUGUCUCGCUCAAGCUUGUCCUGUCUGGUCACUUUUCUUUCUGCCUGAUAAUCCAGACCUCGAAAAUAACCAAAAGAUUGGAAAUCGUUUGCUCAUCUUGCAUGCAUUAUUACUUUCCUGGAUCAAUCUCAUUCAACUCGUUCUCGUGCAUUUCAUUCAACCUCAACCCCUACUUUCAGUCAAUUCAAUUUAAUUCAAUCAUUCAAAUCUUUCAUUUCGCACACUUCACAUUCAACCAUCCUCUCUCAAUCAAAUAUCACCACCUCUCUUAUCGAACGUCAUUUUGCAUACAAUCAAUUCCUACAGACCGAGCGCAACUCGAUACAACCAUCGAAUAACUUCUCACACUUGCUUGUUGAAUUGAUUACUGAAGAAAGUGGAUUUCAAAGACCGAUUUUCCCCCUAGAUAUUCAAGAACGGCUUAUUCUUGUCUCGAGACAAAAC
antisense: GUUUUGUCUCGAGACAAGAAUAAGCCGUUCUUGAAUAUCUAGGGGGAAAAUCGGUCUUUGAAAUCCACUUUCUUCAGUAAUCAAUUCAACAAGCAAGUGUGAGAAGUUAUUCGAUGGUUGUAUCGAGUUGCGCUCGGUCUGUAGGAAUUGAUUGUAUGCAAAAUGACGUUCGAUAAGAGAGGUGGUGAUAUUUGAUUGAGAGAGGAUGGUUGAAUGUGAAGUGUGCGAAAUGAAAGAUUUGAAUGAUUGAAUUAAAUUGAAUUGACUGAAAGUAGGGGUUGAGGUUGAAUGAAAUGCACGAGAACGAGUUGAAUGAGAUUGAUCCAGGAAAGUAAUAAUGCAUGCAAGAUGAGCAAACGAUUUCCAAUCUUUUGGUUAUUUUCGAGGUCUGGAUUAUCAGGCAGAAAGAAAAGUGACCAGACAGGACAAGCUUGAGCGAGACAAGACAAC
Disease compared with the chemical standard program (AUDPC) (10, 20, 30 and 40 g ai/ha, Captan 2240 g ai/ha and Switch 525 g ai/ha): no significant difference
Disease compared with the biological standard program (AUDPC) (10, 20, 30 and 40 g ai/ha, Regalia 470 g ai/ha and Stylet Oil 6800 g ai/ha): no significant difference
Disease caused by B. cinerea vs untreated check (AUDPC) (formulated, Activator 90 0.25% v/v, 10, 20, 30 and 40 g ai/ha, five weekly applications): significantly reduced disease
